# Data as given in PMC9122601, “A widespread family of WYL-domain transcriptional regulators co-localizes with diverse phage defence systems and islands”.
# T1: His6-BrxR-R17A (Escherichia fergusonii (plasmid pEFER), UniProt B7L3Y3 14-308, R30A)
# T1 sequence: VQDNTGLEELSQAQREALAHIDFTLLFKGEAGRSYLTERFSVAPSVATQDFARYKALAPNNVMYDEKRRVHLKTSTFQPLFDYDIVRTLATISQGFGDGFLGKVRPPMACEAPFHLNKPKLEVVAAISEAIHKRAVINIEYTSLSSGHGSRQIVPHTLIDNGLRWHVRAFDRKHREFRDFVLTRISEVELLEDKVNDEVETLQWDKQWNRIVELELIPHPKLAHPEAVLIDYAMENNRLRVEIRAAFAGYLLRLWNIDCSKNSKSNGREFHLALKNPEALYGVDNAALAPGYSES
# Target: T1, His6-BrxR-R17A
# Assay: EMSA; only non-specific binding at high protein; EMSA: 10 mM Tris-HCl pH 7.9, 150 mM KCl, 0.5 mM EDTA, 0.2 mM DTT, 0.1% Triton X-100, 13% glycerol (1x of 5x buffer), 1 ug poly(dI-dC) per 10 ul, 2500 fmol probe, 25 C 30 min; 7% native PAGE in 0.5x TBE
# Conditions: protein: recombinant; tags: N-terminal His6; chain copies: 2; label: 5' 6-FAM on reverse strand (primer TRB1068); blunt
binder,measurement,value
"WT IR1-IR2 probe (R7, R-BOX1) (dsDNA) DNA 1: GACGACTTGTTGATACTATGAAACCTACTGAAAAACAGTAGGTTGCTTGATGGCATTCAATCGATGGCTTAAGCTTTTGTCAGTGCGCA DNA 2: TGCGCACTGACAAAAGCTTAAGCCATCGATTGAATGCCATCAAGCAACCTACTGTTTTTCAGTAGGTTTCATAGTATCAACAAGTCGTC",binding result,no binding
